Common to all, as to test: cell-based or functional assay
Experiment [1] deals with CCR2 (the MCP1 receptor) on THP-1 human monocytic cells (human) (UniProt P41597).
Experiment [2] shares this target. The source holds these as a separate data set.
Experiment [3] shares this target. This is another data set of the same source.
For experiment [4] the target is unchanged. This is another data set of the same source.

Like-named read-outs stand apart in the source and are kept apart here.

Chain of UniProt P41597 (P41597 whole entry): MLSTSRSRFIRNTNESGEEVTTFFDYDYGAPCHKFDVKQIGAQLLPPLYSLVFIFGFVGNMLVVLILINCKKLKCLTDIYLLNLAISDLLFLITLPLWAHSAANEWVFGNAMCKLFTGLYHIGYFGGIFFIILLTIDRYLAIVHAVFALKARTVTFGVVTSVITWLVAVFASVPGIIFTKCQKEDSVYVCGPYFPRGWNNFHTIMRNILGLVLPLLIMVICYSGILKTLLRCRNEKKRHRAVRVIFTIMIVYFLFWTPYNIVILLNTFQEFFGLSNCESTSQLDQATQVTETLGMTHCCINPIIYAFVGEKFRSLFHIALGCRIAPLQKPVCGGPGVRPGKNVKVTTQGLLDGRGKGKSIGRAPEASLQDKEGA

In experiment [1], “LPD1421 (MCP1-Ig fusion: mature human MCP1, linker GGEPKSS of SEQ ID NO: 12, human IgG1 variant hinge-CH3 with D265A) (Fc fusion)” returned a relative % of THP-1 cell migration, agonist assay, 0.01 nM of 27.9%; a relative % of THP-1 cell migration, agonist assay, 0.03 nM of 63.8%; a relative % of THP-1 cell migration, agonist assay, 0.1 nM of 104%; a relative % of THP-1 cell migration, agonist assay, 0.3 nM of 86.2%. In experiment [1], this substance had a relative % of THP-1 cell migration, agonist assay, 1 nM of 59.5%; a relative % of THP-1 cell migration, agonist assay, 3 nM of 33.1%; a relative % of THP-1 cell migration, agonist assay, 10 nM of 26.4%. In addition, in experiment [2], the relative % of THP-1 cell migration, antagonist assay, rhMCP-1 0 nM, LPD1421 0.01 nM was 11.8%; the relative % of THP-1 cell migration, antagonist assay, rhMCP-1 0 nM, LPD1421 0.1 nM is 9.55%; the relative % of THP-1 cell migration, antagonist assay, rhMCP-1 0 nM, LPD1421 1 nM came to 12.6%; the relative % of THP-1 cell migration, antagonist assay, rhMCP-1 0.01 nM, LPD1421 0.01 nM is 10.6%. Further, in experiment [2], the relative % of THP-1 cell migration, antagonist assay, rhMCP-1 0.01 nM, LPD1421 0.1 nM worked out at 9.42%; the relative % of THP-1 cell migration, antagonist assay, rhMCP-1 0.01 nM, LPD1421 1 nM worked out at 8.35%; the relative % of THP-1 cell migration, antagonist assay, rhMCP-1 0.03 nM, LPD1421 0.01 nM came out at 12.7%; the relative % of THP-1 cell migration, antagonist assay, rhMCP-1 0.03 nM, LPD1421 0.1 nM turned out to be 10.3%. Besides, in experiment [2], the relative % of THP-1 cell migration, antagonist assay, rhMCP-1 0.03 nM, LPD1421 1 nM amounted to 10.7%; the relative % of THP-1 cell migration, antagonist assay, rhMCP-1 0.1 nM, LPD1421 0.01 nM was determined as 24.3%; the relative % of THP-1 cell migration, antagonist assay, rhMCP-1 0.1 nM, LPD1421 0.1 nM was determined as 12.1%; the relative % of THP-1 cell migration, antagonist assay, rhMCP-1 0.1 nM, LPD1421 1 nM came out at 7.25%. For the same substance, in experiment [2], the relative % of THP-1 cell migration, antagonist assay, rhMCP-1 0.3 nM, LPD1421 0.01 nM amounted to 41.7%; the relative % of THP-1 cell migration, antagonist assay, rhMCP-1 0.3 nM, LPD1421 0.1 nM was 15.9%; the relative % of THP-1 cell migration, antagonist assay, rhMCP-1 0.3 nM, LPD1421 1 nM came out at 13.5%; the relative % of THP-1 cell migration, antagonist assay, rhMCP-1 1 nM, LPD1421 0.01 nM is 61.2%. In experiment [2], this substance gave a relative % of THP-1 cell migration, antagonist assay, rhMCP-1 1 nM, LPD1421 0.1 nM of 33.7%; a relative % of THP-1 cell migration, antagonist assay, rhMCP-1 1 nM, LPD1421 1 nM of 9.44%; a relative % of THP-1 cell migration, antagonist assay, rhMCP-1 3 nM, LPD1421 0.01 nM of 44%; a relative % of THP-1 cell migration, antagonist assay, rhMCP-1 3 nM, LPD1421 0.1 nM of 39.2%. Moreover, in experiment [2], the relative % of THP-1 cell migration, antagonist assay, rhMCP-1 3 nM, LPD1421 1 nM was 9.57%; the relative % of THP-1 cell migration, antagonist assay, rhMCP-1 10 nM, LPD1421 0.01 nM worked out at 39.2%; the relative % of THP-1 cell migration, antagonist assay, rhMCP-1 10 nM, LPD1421 0.1 nM was 37.9%; the relative % of THP-1 cell migration, antagonist assay, rhMCP-1 10 nM, LPD1421 1 nM was determined as 16.1%. Besides, in experiment [3], the EC50, agonist THP-1 cell migration is 0.03 nM; the IC50, antagonist assay of THP-1 cell migration toward rhMCP-1 was 0.01 to 0.1 nM; the potency in agonist cell migration relative to rhMCP-1 is 3 fold.

In experiment [3], “NGSD (human MCP-1 joined at its carboxy-terminus directly to wild-type human IgG1 Fc) (from UniProt P13500 24-99; P01857 99-330) (Fc fusion)” registered an EC50, agonist THP-1 cell migration of 0.03 to 0.3 nM; a relative % of THP-1 cell migration, agonist assay, 0.03 nM of 17.7%; a relative % of THP-1 cell migration, agonist assay, 0.1 nM of 34.3%; a relative % of THP-1 cell migration, agonist assay, 0.3 nM of 35.5%. Also, in experiment [3], the relative % of THP-1 cell migration, agonist assay, 1 nM amounted to 36.5%; the relative % of THP-1 cell migration, agonist assay, 3 nM is 26.7%; the relative % of THP-1 cell migration, agonist assay, 10 nM came to 17.5%; the relative % of THP-1 cell migration, agonist assay, 30 nM was determined as 20.1%.

For the substance “recombinant human MCP-1 (rhMCP-1) (R & D Systems) (from UniProt P13500 24-99) (ligand)”, in experiment [4], the relative % of THP-1 cell migration, agonist assay, 0.03 nM stood at 28.6%; the relative % of THP-1 cell migration, agonist assay, 0.1 nM came to 52.2%; the relative % of THP-1 cell migration, agonist assay, 0.3 nM was found to be 76%; the relative % of THP-1 cell migration, agonist assay, 3 nM turned out to be 78.1%. In experiment [4], this substance came in with a relative % of THP-1 cell migration, agonist assay, 10 nM of 47.5% and a relative % of THP-1 cell migration, agonist assay, 30 nM of 25.3%. In addition, in experiment [1], the relative % of THP-1 cell migration, agonist assay, 0.01 nM amounted to 29.2%; the relative % of THP-1 cell migration, agonist assay, 0.03 nM worked out at 28.7%; the relative % of THP-1 cell migration, agonist assay, 0.1 nM came to 59.4%; the relative % of THP-1 cell migration, agonist assay, 0.3 nM came out at 87.3%. Also, in experiment [1], the relative % of THP-1 cell migration, agonist assay, 3 nM is 78.4% and the relative % of THP-1 cell migration, agonist assay, 10 nM amounted to 48.4%. For the same substance, in experiment [2], the relative % of THP-1 cell migration toward rhMCP-1 0.01 nM, medium only amounted to 16.2%; the relative % of THP-1 cell migration toward rhMCP-1 0.03 nM, medium only came to 24.2%; the relative % of THP-1 cell migration toward rhMCP-1 0.1 nM, medium only is 34.8%; the relative % of THP-1 cell migration toward rhMCP-1 0.3 nM, medium only is 60.7%. In experiment [2], this substance returned a relative % of THP-1 cell migration toward rhMCP-1 3 nM, medium only of 82.1% and a relative % of THP-1 cell migration toward rhMCP-1 10 nM, medium only of 59.8%. Further, in experiment [3], the EC50, agonist THP-1 cell migration is 0.1 nM; the relative % of THP-1 cell migration toward rhMCP-1 0.01 nM, medium only was 6.44%; the relative % of THP-1 cell migration toward rhMCP-1 0.03 nM, medium only came to 15%; the relative % of THP-1 cell migration toward rhMCP-1 0.1 nM, medium only was found to be 32%. Moreover, in experiment [3], the relative % of THP-1 cell migration toward rhMCP-1 0.3 nM, medium only was found to be 67.5%; the relative % of THP-1 cell migration toward rhMCP-1 1 nM, medium only is 100%; the relative % of THP-1 cell migration toward rhMCP-1 3 nM, medium only was determined as 97%; the relative % of THP-1 cell migration toward rhMCP-1 10 nM, medium only turned out to be 75.5%. In experiment [3], this substance came in with a relative % of THP-1 cell migration, agonist assay, 0.03 nM of 26.5%; a relative % of THP-1 cell migration, agonist assay, 0.1 nM of 46.4%; a relative % of THP-1 cell migration, agonist assay, 0.3 nM of 80.2%; a relative % of THP-1 cell migration, agonist assay, 1 nM of 100%. In experiment [3], this substance gave a relative % of THP-1 cell migration, agonist assay, 3 nM of 70.3%; a relative % of THP-1 cell migration, agonist assay, 10 nM of 32.8%; a relative % of THP-1 cell migration, agonist assay, 30 nM of 26.4%.

In experiment [4], “GSD (human MCP-1, glycine-serine dipeptide, wild-type human IgG1 Fc) (from UniProt P13500 24-99; P01857 99-330) (Fc fusion)” registered a relative % of THP-1 cell migration, agonist assay, 0.03 nM of 22.8%; a relative % of THP-1 cell migration, agonist assay, 0.1 nM of 34.5%; a relative % of THP-1 cell migration, agonist assay, 0.3 nM of 41.9%; a relative % of THP-1 cell migration, agonist assay, 1 nM of 58.9%. In experiment [4], this substance displayed a relative % of THP-1 cell migration, agonist assay, 3 nM of 53%; a relative % of THP-1 cell migration, agonist assay, 10 nM of 34.3%; a relative % of THP-1 cell migration, agonist assay, 30 nM of 23.1%. The EC50, agonist THP-1 cell migration in experiment [3] was in the range of 0.03 to 0.3 nM.

Source of the values: patent US20110280873A1.
